Experimental data taken from US20190083615A1 (Merck Sharp & Dohme, published 2019).
“And” between values parts separate entries of the source, which are not always exact repeats. Identical values can stand only once.

T1: Human LAG3-His: [VEGF leader]-LAG3_H-[His9G] (human, UniProt P18627 23-450)
T1 construct: also called human LAG3-His tagged recombinant protein; hLAG3-His
T1 sequence: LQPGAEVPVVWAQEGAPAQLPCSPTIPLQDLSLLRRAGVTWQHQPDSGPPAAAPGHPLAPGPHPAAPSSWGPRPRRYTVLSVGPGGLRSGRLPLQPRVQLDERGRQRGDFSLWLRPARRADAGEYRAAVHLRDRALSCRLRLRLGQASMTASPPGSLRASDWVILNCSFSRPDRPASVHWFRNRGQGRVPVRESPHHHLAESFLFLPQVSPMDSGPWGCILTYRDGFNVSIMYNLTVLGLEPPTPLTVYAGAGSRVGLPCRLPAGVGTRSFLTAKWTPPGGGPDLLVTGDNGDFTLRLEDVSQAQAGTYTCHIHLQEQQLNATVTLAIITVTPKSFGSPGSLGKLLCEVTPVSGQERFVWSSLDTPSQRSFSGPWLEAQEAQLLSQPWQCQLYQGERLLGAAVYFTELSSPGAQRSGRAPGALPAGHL

T2: human LAG3-huFc recombinant protein (human, UniProt P18627 23-450, limits assumed, biotinylated in the runs with humanized and chimeric antibodies (Example 11))
T2 construct: also called human LAG3-Fc; huLAG3-huFc; not shown: human Fc
T2 sequence: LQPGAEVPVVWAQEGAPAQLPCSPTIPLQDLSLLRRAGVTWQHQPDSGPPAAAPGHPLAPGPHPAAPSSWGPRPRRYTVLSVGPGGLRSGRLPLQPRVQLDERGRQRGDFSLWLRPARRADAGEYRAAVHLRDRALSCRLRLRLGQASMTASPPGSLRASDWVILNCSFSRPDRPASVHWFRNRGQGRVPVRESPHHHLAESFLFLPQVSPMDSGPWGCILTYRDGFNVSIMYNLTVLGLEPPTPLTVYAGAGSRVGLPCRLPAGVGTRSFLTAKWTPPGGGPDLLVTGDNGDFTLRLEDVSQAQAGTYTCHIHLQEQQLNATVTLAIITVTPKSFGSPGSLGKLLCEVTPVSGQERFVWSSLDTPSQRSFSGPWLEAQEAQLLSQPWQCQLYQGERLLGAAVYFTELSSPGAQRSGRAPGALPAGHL

T3: human LAG3 (Lymphocyte Activation Gene-3) expressed on cells (human, UniProt P18627 23-525)
T3 sequence: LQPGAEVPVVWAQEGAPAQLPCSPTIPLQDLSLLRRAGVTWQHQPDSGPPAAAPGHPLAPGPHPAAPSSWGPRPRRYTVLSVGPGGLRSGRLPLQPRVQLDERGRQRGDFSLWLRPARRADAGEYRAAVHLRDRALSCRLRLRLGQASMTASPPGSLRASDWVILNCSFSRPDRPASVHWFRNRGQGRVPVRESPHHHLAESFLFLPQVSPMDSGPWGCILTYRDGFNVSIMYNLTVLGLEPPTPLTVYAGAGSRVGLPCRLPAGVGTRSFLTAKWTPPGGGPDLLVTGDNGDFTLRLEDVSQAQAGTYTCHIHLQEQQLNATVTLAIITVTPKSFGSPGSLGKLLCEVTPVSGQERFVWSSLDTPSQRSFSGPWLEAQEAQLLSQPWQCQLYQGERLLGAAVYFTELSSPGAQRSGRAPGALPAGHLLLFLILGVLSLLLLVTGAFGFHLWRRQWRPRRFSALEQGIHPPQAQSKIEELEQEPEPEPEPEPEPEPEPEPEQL


Tests used:
[1] = target: T1, Human LAG3-His: [VEGF …; experiment: SPR (Biacore T200), antibody captured on goat anti-mouse Fc, human LAG3-His as analyte, 1:1 Langmuir fit
Procedure: Mouse anti-human LAG3 clones listed above were injected over the immobilized goat anti-mouse surfaces at 1 ug/mL for a capture level of 40 RU. HBS-EP+ buffer (BR-1006-69) was used as the running buffer with a flow rate of 30 μL/min.
Varying concentrations of human LAG3-His protein ranging from 0.15 nM to 18.8 nM, at a flow rate of 40 μL/min were injected over the antibody surfaces.
Background subtraction binding sensorgrams were used for analyzing the rate constant of association (kₐ) and dissociation (kd), and the equilibrium dissociation constant KD. The resulting data sets were fitted with a 1:1 Langmuir Binding Model using the Biacore T200 evaluation software (version 2.0).

[2] = target: T2, human LAG3-huFc recombinant protein; experiment: flow cytometry, blockade of human LAG3-huFc binding to MHC class II on Daudi cells
Procedure: (§1) Mouse anti-human LAG3 clones were tested for their ability to block hLAG3 interaction with human MHC Class II. Daudi cells (ATCC #CCL-213) were used as a cell line positive for human MHC class II expression. Daudi cells were blocked with 10 ug/ml of goat IgG in HBSS and 2% BCS on ice for 30 minutes and 0.5×10⁶ cells/sample were aliquoted into a 96-well V-bottom plate and blocking buffer removed. […] Cells were pelleted by centrifugation at 1200 rpm and washed twice with HBSS/2% BCS. […] Cells were washed twice as described above, resuspended in HBSS/2% BCS and read on the FACSCalibur.

[3] = target: T3, human LAG3 (Lymphocyte Activation …); experiment: cell-based or functional assay
[4] = target: T2, human LAG3-huFc recombinant protein; experiment: flow cytometry, blockade of human LAG3-huFc (2 ug/ml) binding to MHC class II on Daudi cells
Procedure: as §1

| Kd [1] | koff [1] | kon [1] | IC50 [2] | EC50 for IL-2 rescue, hLAG3-3A9 T cell system [3] | IC50 [4] | Binder |
| --- | --- | --- | --- | --- | --- | --- |
| 0.0147 nM | 0.000109 s⁻¹ | 7.43e+06 M⁻¹ s⁻¹ | 2.8 nM | 1.74 nM and 1.83 nM | 2.8 nM | mouse anti-human LAG3 antibody LB148.19E8.G1.1A1 (antibody, mouse IgG2b, V domains shown, also called Lag3 clone 19E8) VH: QIRLQQSGPELVKPGASVKISCKASGSSFTDYYINWVKQKPGQGLEWIGWIYPGSGNSIYNENFKAKATLTVDTSSSTAYMHLSSLTSEDTAVYFCAREADYDDALDYWGQGTSVTVSS VL: HILLTQSPAILSVSPGERVSFSCRASQSIGTSIHWYQQRTNGSPRLLIKYASESISGIPSRFSGSGSGTDFTLSINSVESEDIADYYCQQSNSWPTYTFGGGTKLEIK |
| 1.47 nM | 0.00192 s⁻¹ | 1.31e+06 M⁻¹ s⁻¹ | 2 nM | 3.56 nM and 4.06 nM | 2 nM | mouse anti-human LAG3 antibody LB148.11C9.1C1 (antibody, mouse IgG1, V domains shown, also called Lag3 clone 11C9) VH: QVQLQQPGAELVMPGASAKMSCKASGYTLTDYWMHWVKQRPGQGLEWIGAIDISDSYSSYNQKFKGKATLTVDESSSTAYMQLTSLTSEDSAVYYCARSPFYNSRGGNYFDYWGQGTTLTVSS VL: DIQMTQTTSSLSASLGDRVTISCRASQDISNYLNWYQQKPDGTVKLLIYYTSRLHSGVPSRFSGSGSGTDYSLTISNLEQEDIATYFCQQGDTLPPWTFGGGTKLEIK |
| 0.0903 nM | 0.000113 s⁻¹ | 1.25e+06 M⁻¹ s⁻¹ | 1.9 nM | 2.83 nM and 2.96 nM | 1.9 nM | mouse anti-human LAG3 antibody LB148.4A10.1H1 (antibody, mouse IgG2a, V domains shown, also called Lag3 clone 4A10) VH: EVQLLQSGAELVRSGASVKLSCTASGFNIEDYYMHWMKQRPEQGLEWIGWIDPVNGDTEYAPKFQGKATMTADTSSNTAYLHLNSLTSEDTAVYYCNFYDGYLFAFWGQGTLVTVSA VL: DIVLTQAAPSVPVTPGESVSISCRSSKSLLHSDGNTYLYWLLQRPGQSPQLLIYRMSNLASGVPDRFSGSGSGTVFTLRISRLEAEDVGIYYCMQHLEYPFTFGGGTKLEIK |
